From US20050053993A1, “Uses of an endothelial cell receptor” (priority 2002, published 2005)

What was measured:
[1] = tested on: GRP78 siRNA transfected HMVEC cells; assay: 3HK5 binding to GRP78 siRNA transfected cells; set-up: species or system human; settings: compared to scrambled siRNA transfected cells
Experimental: FIG. 13 is a graph comparing the effect of binding of rK5 to GRP78 siRNA transfected HMVEC cells and scrambled siRNA transfected cells. GRP78 siRNA or scrambled siRNA transfected EaHy cells were grown in 96 well plates. The media was changed and ^3HK5 in PBS was added to the cells. The cells were incubated at room temperature for two hours then washed thoroughly. Cell counts were measure for bound ^3HK5. Data points are the average of triplicate studies.
In selected studies, GRP78 siRNA- or scrambled siRNA-transfected EaHy cells were grown in 96 well plates. The media was changed and ^3HK5 in PBS was added to the cells at various concentrations. The cells were incubated at room temperature for two hours then washed thoroughly. Cell counts were measured for bound ^3HK5 as described above. Data points were calculated from the average of triplicate samples.

Lewis Lung Carcinoma = assay: Tumor cell proliferation, Lewis Lung Carcinoma; format: cell-based; settings: 72 hours
Experimental: Cell Proliferation Assay. The effect of rK5 and rK5 peptides on endothelial cells were assessed using a proliferation assay with 1% BSA and 3 ng/ml bFGF in serum-free media. Relative cell numbers in each well of a 96 well microplate after incubation for 72 hours in the absence or presence of inhibitors were determined by using the AQueous cell proliferation assay (Promega, San Luis Obispo, Calif.). For all other cell lines tested for proliferation, minimal growth media was used (Cao, Y., Ji, R., Davidson, D., Schaller, J., Marti, D., Sohndel, S., McCance, S., O'Reilly, M., Llinas, M., and Folkman, J. Kringle domains of human angiostatin. Characterization of the anti-proliferative activity on endothelial cells. (1996) J. Biol. Chem. 271, 29461-29467). Results are presented as the percent inhibition of control cell (bFGF-induced) proliferation.

IC50 values for cell proliferation (Lewis Lung Carcinoma): >100 µg/mL
B1: rK5: recombinant kringle 5 fragment of human plasminogen (residues 450-543), expressed in E. coli or yeast (protein)
chain: LLPDVETPSEEDCMFGNGKGYRGKRATTVTGTPCQDWAAQEPHRHSIFTPETNPRAGLEKNYCRNPDGDVGGPWCYTTNPRKLYDYCDVPQCAA
binding to GRP78 siRNA transfected HMVEC cells [1]: very low
